Laboratory results from article PMC2755895 (The Journal of Biological Chemistry, 2009).
Each block holds one substance with its values, some of them ahead of it. No end group written: not given here.

How the values were obtained:
[1] = molecular target: p53 DNA-binding domain
[2] = system: N-terminal domain of MDM2; details: cited from earlier work
[3] = system: subdomains of p300; details: cited from earlier work
[4] = molecular target: mutation of single hydrophobic residues to alanine (p53N peptides)
[5] = molecular target: QS2 W53Q/F54S p53N-(35–57) (UniProt P04637); assay: fluorescence polarisation
[6] = molecular target: hDp53N-(10–57)-aspartic acid mimic (UniProt P04637); assay: fluorescence polarisation
[7] = molecular target: PC4CTD (Homo sapiens, UniProt P53999); assay: Fluorescence titration of p53TAD peptides; format: binding; details: in words

- Kd [1]: > 100 µM
Substance: p53 N-terminal transactivation domain, TAD-(1–93) (from UniProt P04637 1-93) (domain or fragment)

Substance: TAD1: p53 transactivation subdomain TAD1-(1–40)
- interaction with N-terminal domain of MDM2 [2]: very tight
- binding to p300 subdomains [3]: bind only weakly

- Kd [4]: 14 to 16 µM
- Kd [5]: 20 µM
- Kd [6]: 5 µM
Substance: PC4 C-terminal DNA-binding domain, PC4CTD-(61–127) (from UniProt P53999 61-127) (domain or fragment)

- quantifiability of binding to PC4CTD [7]: no quantifiable binding
Substance: D41K/D42K/D48K/D49K/E51K p53N-(35–57) (LPSQAMKKLMLSPKKIKQWFTED-{K(methoxycoumarin)})
